Here are results for 18 molecules from US20260365739 (published 2026).

As usually defined, the Kd is the free concentration of one partner at which half of the binding sites on the other are occupied at equilibrium, for simple one-to-one binding. High values mean a looser complex, low ones a tighter complex.

Changes are numbered by the printed parent chain.

B1: EG2 (antibody, V domains shown)
VH: QVQLVESGGGLVQAGDSLRVSCAASGRDFSDYVMGWFRQAPGKEREFVAAISRNGLTTRYADSVKGRFTISRDNDKNMVYLQMNSLKPEDTAVYYCAVNSAGTYVSPRSREYDYWGQGTQVTVSS
B2: EG2_4_25 (antibody, V domains shown)
VH: B1 VH with L4C, A24C
B3: EG2_24_86 (antibody, V domains shown)
VH: B1 VH with A23C, M78C
B4: EG2_6_119 (designed binder)
chain: B1 VH with E6C, G116C
B5: EG2_22_88 (antibody, V domains shown)
VH: B1 VH with S21C, Y80C
B6: IGF1R4_22_88 (antibody, V domains shown)
VH: QVKLEESGGGLVQAGGSLRLCCEVSGGTVSPTAMGWFRQAPGKEREFVGHITWSRGTTRVASSVKDRFTISRDSAKNTVCLQMNSLKSEDTAVYYCAASTFLRILPEESAYTYWGQGTQVTVSS
B7: IGF1R4_24_86 (antibody, V domains shown)
VH: B6 VH with C21S, E23C, T78C, C80Y
B8: IGF1R4_4_25 (antibody, V domains shown)
VH: B6 VH with L4C, C21S, V24C, C80Y
B9: IGF1R4_6_119 (designed binder)
chain: B6 VH with E6C, C21S, C80Y, G115C
B10: IGF1R4 (antibody, V domains shown)
VH: B6 VH with C21S, C80Y
B11: IGF1R5_4_25 (antibody, V domains shown)
VH: QVKCEESGGGLVQAGGSLRLSCACSGRTIDNYAMAWSRQAPGKDREFVATIDWGDGGARYANSVKGRFTISRDNAKGTMYLQMNNLEPEDTAVYSCAMARQSRVNLDVARYDYWGQGTQVTVSS
B12: IGF1R5_22_88 (antibody, V domains shown)
VH: B11 VH with C4L, S21C, C24A, Y80C
B13: IGF1R5 (antibody, V domains shown)
VH: B11 VH with C4L, C24A
B14: IGF1R3_6_119 (designed binder)
chain: QVKLECSGGGLVQAGGSLRLSCVASEYPSNFYAMSWFRQAPGKEREFVAGVSRDGLTTLYADSVKGRFTMSRDNAKNTVDLQMNSVKAEDTAVYYCAIVITGVWNKVDVNSRSYHYWCQGTQVTVSS
B15: IGF1R3_4_25 (antibody, V domains shown)
VH: B14 chain with L4C, C6E, A24C, C118G
B16: IGF1R3_24_86 (antibody, V domains shown)
VH: B14 chain with C6E, V23C, T78C, C118G
B17: IGF1R3_22_88 (antibody, V domains shown)
VH: B14 chain with C6E, S21C, D80C, C118G
B18: IGF1R3 (antibody, V domains shown)
VH: B14 chain with C6E, C118G

The target in one test is EGFR (human, UniProt P00533). The test can be described thus: SPR.
The molecule B1 registered a Kd of 14.6 nM. B2 registered a Kd of 10.6 nM. Same read-out and setting: the figure for B3 is 62.5 nM; for B4 it is 25.7 nM. Still for that read-out and setting: the figure for B5 is 47.2 nM.

In another test the target is IGF1R (human, UniProt P08069). The test can be described thus: SPR. A general note: In SPR one partner is held on a chip, and binding of the other changes the refractive index at the surface.
Chain of IGF1R (P08069 31-932): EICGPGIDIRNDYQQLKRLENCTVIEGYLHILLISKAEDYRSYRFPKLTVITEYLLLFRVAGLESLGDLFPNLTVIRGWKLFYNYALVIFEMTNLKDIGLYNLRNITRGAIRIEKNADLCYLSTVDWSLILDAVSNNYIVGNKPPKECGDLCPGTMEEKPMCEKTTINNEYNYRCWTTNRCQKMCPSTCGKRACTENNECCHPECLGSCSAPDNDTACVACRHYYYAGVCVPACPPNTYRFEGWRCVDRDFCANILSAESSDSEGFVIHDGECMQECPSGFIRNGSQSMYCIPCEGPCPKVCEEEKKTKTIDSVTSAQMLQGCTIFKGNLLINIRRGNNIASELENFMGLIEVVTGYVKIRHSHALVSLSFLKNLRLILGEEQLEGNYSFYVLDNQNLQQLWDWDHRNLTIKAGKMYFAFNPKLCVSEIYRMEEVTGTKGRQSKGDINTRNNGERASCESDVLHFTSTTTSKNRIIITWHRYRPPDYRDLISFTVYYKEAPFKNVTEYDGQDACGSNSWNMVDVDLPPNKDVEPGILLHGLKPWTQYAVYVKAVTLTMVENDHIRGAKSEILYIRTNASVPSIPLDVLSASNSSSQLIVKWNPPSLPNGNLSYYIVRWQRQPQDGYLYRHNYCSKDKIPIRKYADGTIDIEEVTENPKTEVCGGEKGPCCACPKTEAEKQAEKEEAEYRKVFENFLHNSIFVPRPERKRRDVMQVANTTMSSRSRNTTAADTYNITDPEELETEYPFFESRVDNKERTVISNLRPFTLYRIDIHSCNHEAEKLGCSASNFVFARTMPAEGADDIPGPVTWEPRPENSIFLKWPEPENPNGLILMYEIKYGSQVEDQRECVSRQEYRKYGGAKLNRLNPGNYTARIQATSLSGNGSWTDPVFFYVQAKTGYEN
On to B6, for which the Kd turned out to be 0.5 nM. Still for that read-out and setting: the figure for B7 is 1.1 nM.

With B8, the Kd worked out at 0.5 nM. On the same count and under the same terms, the figure for B9 is 0.3 nM. B10 returned a Kd of 0.3 nM. In turn, B11 yielded a Kd of 0.8 nM. On to B12, for which the Kd came to 1.4 nM. The molecule B13 showed a Kd of 1.1 nM. Still for that read-out and setting: as for B14, the figure is 1.4 nM; as for B15, 2.3 nM; as for B16, 5.3 nM. The same measure, in the same setting: as for B17, the figure is 0.8 nM; as for B18, 0.9 nM.
